From patent US20180044416A1 come the findings set out here.

The test addresses human FcRn with human beta2M on MDCK II clone 15 cells (human) (UniProt P55899). Nature of the test: cell-based or functional assay.
Chain of UniProt P55899 (P55899 24-365, chain 1 of 2): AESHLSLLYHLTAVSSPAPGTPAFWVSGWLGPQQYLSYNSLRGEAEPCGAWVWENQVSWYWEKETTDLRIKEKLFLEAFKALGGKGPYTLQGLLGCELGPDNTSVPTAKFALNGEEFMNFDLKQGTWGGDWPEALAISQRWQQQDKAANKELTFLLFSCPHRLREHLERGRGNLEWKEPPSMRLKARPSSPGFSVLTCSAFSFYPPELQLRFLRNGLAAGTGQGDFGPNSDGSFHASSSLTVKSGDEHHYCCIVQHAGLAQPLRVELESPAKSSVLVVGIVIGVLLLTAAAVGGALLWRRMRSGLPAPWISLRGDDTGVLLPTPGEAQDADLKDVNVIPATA
Chain of UniProt P55899 (P61769 21-119, chain 2 of 2, further chain): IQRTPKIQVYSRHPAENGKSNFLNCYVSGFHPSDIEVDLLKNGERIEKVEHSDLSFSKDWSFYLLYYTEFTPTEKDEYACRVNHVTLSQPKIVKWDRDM
In the case of IgG1 IgM tail-piece, H310L (Fc fusion), the Blockade of IgG recycling, maximal inhibition is 45%. Take IgG1 IgM tail-piece, V308F (Fc fusion): the Blockade of IgG intracellular uptake EC50 came to 0.12 µg/mL and the Blockade of IgG recycling EC50 came to 0.073 µg/mL.

IgG4 IgM tail-piece, T307A (Fc fusion): the Blockade of IgG intracellular uptake EC50 stood at 0.5 µg/mL. Turning to IgG1 IgM tail-piece, V308P (Fc fusion), the Blockade of IgG intracellular uptake EC50 amounted to 0.34 µg/mL and the Blockade of IgG recycling EC50 was determined as 0.55 µg/mL. Regarding IgG4 IgM tail-piece, V308F (Fc fusion), the Blockade of IgG intracellular uptake EC50 stood at 0.42 µg/mL and the Blockade of IgG recycling EC50 was determined as 0.56 µg/mL. On the same counts, the results for IgG1 IgM tail-piece, T307A (Fc fusion) are 0.54 µg/mL and 0.35 µg/mL. The like results for IgG4 IgM tail-piece, V308P (Fc fusion) were, in that order, 0.51 µg/mL and 0.42 µg/mL.
